Assay: label from the status in PepcDB records

For “MFGGAKGGHFGVPPAGYSGAVPQSEAGTKAGPAGGRPADTMWRVRCKAKGGTHLLQGLSSRTRLRELQGQIAAITGIAPGSQRILVGYPPECLDLSDRDITLGDLPIQSGDMLIVEEDQTRPKASPAFSKYGAPSYVREALPVLTRTAVPADNSCLFTSVYYVVEGGVLNPACAPEMRRLIAQIVASDPVLYSEAILGKTNEDYCDWIRRDDTWGGAIEISILSKFYQCEICVVDTQTVRIDRFGEDAGYTKRVLLIYDGIHYDPLQRNFPDPDTPPLTIFSSNDDIVLVQALELADEARRKRQFTDVNRFTLRCMICQKGLTGQAEARDHARETGHTNFGEV”, the protein production was “failed”.

In the case of “MAENHCELLPPAPSGLGAGLGGGLCRRCSAGMGALAQRPGGVSKWVRLNVGGTYFLTTRQTLCRDPKSFLYRLCQADPDLDSDKDETGAYLIDRDPTYFGPVLNYLRHGKLVINKDLAEEGVLEEAEFYNITSLIKLVKDKIRERDSRISQMPVKHVYRVLQCQEEELTQMVSTMSDGWKFEQLVSIGSSYNYGNEDQAEFLCVVSKELHNTPYGTTSEPSEKAKILQERGSRM”, the protein production is reported as “not failed”.

With “MIRFIGNNRRNLITALILYLLTLVPIYVFLFSNGYLNFYGPNLPLFSGKEVEHLLAASIYNPEYGFSVNDGIYFLYLLIFTSLGIYNIIILYKIFLIITFSITFLLLYTMINKAINIFKISRYKSLSLIIGVLFFLLNPLYLEYVAFNFYNLIWGVIIFSYILIKLIDIVVNDKNVTKLDILKSGIALGFSGLMDPRLYIWGSYILILTFIIVIIIKPRLILKLIKYLSLTYISSLPIIAYIYYLFVYPSLITQASTINAITVPAYRPDTYSYIATWSENSLLFNVFAFINSEWTSIVYAPPSILFYPRTQWWFFPHFGNNSLILLPPGIITYIWLASLYIFFIVAALALFDRKRTLASSLLFIPMLLIISLSAGTNVPIKEFVYLLEIDPSKLPIVGGIFATTFAIPYYAEVMALPFASYLSILGTNYLLNRINKEILKKIAVSIIIVLAVFASWQYFNGTLYPSEVTGSFPGNSISLEGYYYPLNPPPQWVHVMNLLSTSRESVRNVKN” the protein production was “failed”.

For “MDEIKIEKLKKLDKKALNELIDVYMSGYEGLEEYGGEGRDYARNYIKWCWKKASDGFFVAKVGDKIVGFIVCDKDWFSKYEGRIVGAIHEFVVDKKFQGKGIGRKLLITCLDFLGKYNDTIELWVGEKNYGAMNLYEKFGFKKVGKSGIWVRMIKRQNL”, the protein production was “not failed”.

In the case of “MTETNHDQAEYWGKSASGMKWLTFEEQIAASFAPVVDLLLERAALKPGQRVLDIGCGLGDVTLAAAQAVGPGGHVLGVDISAPFLERAGLRASGMGNVGFALADAQSEPFAPAERDAVLSRFGMMFFSDTVAAFANIARALKPGGRMTFAAWGPLAGNPWFYLPHRAATDRLGQMPKVDRNAPGPLAFHDIDRVTGLMAEAGLADIEAQAVDLNLTPPGGLEGAAALCTRLGPAARVLAHFNGSEADEAAIRDAVSAALEPYVEGGEVLMPATINLFQARRAGTA”, the protein production is reported as “failed”.

For “MTESESASGMDGVVLGGTASGVGKTVATLAVARALADAGHDVQPAKAGPDFIDPSHHEPVVGTPSRSLDPWLSGTDGMRRTYHQGDGDVCVVEGMMGLYDGSVASTARVASELDLPVVLVVDASAGMQSVAATALGFQAYAAEASVDVDVAGVLAQRAHGGRHADGIRDALPDSLTYFGRVPPRDDLDVPDRHLGLHMGSEAAIDDDAVDAAAAHVAAKRIADVARTPPRPPAHDPAPDTGQTVAVADDAAFCFAYPATRERLRERADVVTFSPVAGDDLPACDGVYLPGGYPELHTDALADAPALDTLGARAADGLPVLGECGGLMALAESLTTTDGDTAEMAGVLPADVRMQDRYQALDHVELRATGDTLTAGSGATLRGHEFHYSAATVASDARFAFAVERGDGIDGDHDGLTEYRTLGTYAHVHPESTAFDAFLDAL”, the protein production was “failed”.

In the case of “MNNVSTRAPVRGTKTSLTLPNILTYARIAAIPVVVGCIFAQSILGGPLALRWVALAVFIAAAITDFLDGHFARIWDQQSAFGRMLDPIADKLLVASCLLMLAADSIIHGWTLWAAIVILCREILVSGLREYLAALRVSVPVTRLAKWKTTAQLVAIGFLLAGEAGDEVLPFTTEIGVSLLWLSALLTMYTGYDYFRAGIHHLIEEDQA”, the protein production is reported as “failed”.

For “MPSSSASLIPSLRQASRQMVRELGFMQATLAATDYPPSAVHALLEIGQGNALTAGDLVTLLGLEKSSVSRLVRKLVDAGEISEQAHDQDARSKKLQLSARGRQTLAGIDRFAQAQVAAALAHLSPAQQRSACAGIADYARALRAVRLGDVPEPPERCSIARGYRPGVIGRIAEMHARYYADLAGFGQPFESLVARDMAELMGRLHNPRNEVWVALQGERIVGSIAIDGEGEGGEALLRCFILDEAARGQGLGRRLLAEALGFCDQWGFAATRLWTFKGLDAARALYEEQGFVLVQEQEGEQWGAPVTEQCFVRARVAQRDTIR”, the protein production was “failed”.

With “MNTILSTLFIVLAAWFVISRFLPVKGVQNINGKELKSIVGKQGKYFIDVRTVGEYRGNHMKGFQNIPLNDLASKTNQLDKNREVIVICQSGMRSKQAAKMLKKLGFQHVINVSGGMNGL” the protein production was “failed”.

With “NKEFTWTSALTFTLNNEKVKSLIGGTADHVKNEDYYLSIGYPVNSFYAPKIDGMWQLGEETDAAAFGCAPGDIKINVPGMIKEADGKFYKVGDDGQPLTDKNGDIIYYTKDNKYTYSDADSQVLGHNAPKWTMGFQNSFTYKNFDLTIYAYFRWGQMINYEMLGWYDSTGKGNFPTYFNYWTESNPSNDFPALNANRETKSYIGYGSLNYVDGSFFKIKNITLGYTFPERLLKNAGISKCRLYATITNPLTVAKSHLLKDYDPEMNGALKYPLSKQLVFGVNVSF” the protein production was “failed”.

For “MNRNGQRRFLEFFAGGGMARLGLGADWACAFANDFDPVKAATYRANFADAGKHFQEGDVFALSAERLPDADLAWASSPCQDFSLAGARAGLAGGRSSAFFGFWSLMRSLSAEGRAPSVIVIENVVGLLTSHGGADFTALCQALHEEGYRFGALEIDAGAFVPQSRPRVFVVATRNPPGDLVGSSAFHTRAVREAAARLPADLQASWVWWGAPSPPARNTDLASMLEPDDRAVW”, the protein production was “failed”.

In the case of “ETEDQTNMIAIQADGCYIVDALTPIEDFNERFNAEFPDDDYDTIGGLVTEAIGHLPETGDELTIGRFAFRVAKANARRIHILHVTVLP”, the protein production is reported as “not failed”.

With “MQRQNKQQEDSFMIPETSYDIVVVGAGPAGSTAALYAAKKGASVLLLDKKREIGSPIQCAGFLPDASEVKALLPEADLPGALKNYPDSCVLQPIRTQRIIPPNCNAKEFAVKGAVLDRRRYDQYLAEQAAEAGAELMVKTRVTKIQGTTVETSGIFGKHTIRAKAIIGADGPNSLVAKSRGLIMKPEARETSVAIEYQVRNVDIDPDALEMYFGKDYVPGGYAWVFPEGKDRANVGIGIRSCMAEKGVSAKEYLHRFIKKHPVAGPKLKNAVIMNVIAGIIPVNGAPANTATADSLVVGDAAGHIIATNGGGIPPAMIAGKIAGETAAEFAAGKCDLEEYDRRWRAQFGQALETSVQARQIMDGIMKSDALMNAAFRFISPEQMKVMQCGKLPGPVKLGLQALSRGKK” the protein production was “failed”.

In the case of “MKKFFKLKENKTTVRTEVLAGITTFFAMSYILFVNPSILSQTGMPSQGVFLATIIGSIAGTLMMGLYANIPYAMAPGMGLNAFFTYTVVFSLGYTWQEALAMVFICGIISIVITLTRVRRMIIDEIPDSLKKAISAGIGIFLTYIGLKNAGLLNFAIDPGTYSVSGKGAAKGLASITANSSATPSLVNFNNPAVLVAVIGIIITAFFIIKNIKGGVILSIIVTTVIALLAGVVDLSKIDFSANNPVAAVKDLGTIFGAALGNKGLGALFSDAGRIPEVLMTILAFALTDIFDNVGTLIGTGAKAGIFDVTSESTSSGLQNKMDKALFSDMVGTTVGAVAGTSNVTTFVESAAGIGAGGRTGLTAVVVALLFAVSSFFSPLLAIVPTQATAAVLLIVGIMMLSSLKDIEWSDMSQAIPAFFATVFMGLAYSITQGIATGFLFYTFSKLIKKEAKDIHPIIWVLDVLFILNFISLAVL”, the protein production is reported as “failed”.

For “MENDKHNNPKTIFIPDDIAEGIFHHLPIKSLARFKVLSKKWTSMIESTYFSHKRLIRTGLPTPNMKFLHISQHFTANFVEEYSNSITFLLETFSRDDQNNRKTFDESQNKTIQVLGSCDGLVLLRIHDDFRSIYLINPTTKEHMKLSPEFMQWPFTLSYLTPAMANKPWRQLSQSVLDYDISVKRMPSLAGFGKDIVKKSYKVVLIYTRYEIHDHEFKAKVLSLDNGEQRDVGFYDIHHCIFCDEQTSVYANGSLFWLTLKKLSQTSYQLLAIDLHTEEFRWILLPECDTKYATNIEMWNLNERLCLSDVLESSNLVVWSLHQEYPTEKWEKIYSIKIDVIRTNQLHEKFWMLGLAAAYFSNIRNRQDQVSFFRQRTISYLPTMISPSNLML”, the protein production was “failed”.

For “MSYEFYGKTEQEAIKKAMRDLELKEGEFDVEILDKERVGFLFKKEMIKIRVSPHAKEVKKDDFEIKIGDEICDKILEFVKEMLIKMGYSVHLTIEPKEGGYVKISIETDSPNILIGREGKNLDSLQLLTNVYASKLIGENGAFNRVILDIGDYRERFKSRFINLAINSFHKVKRTRRSILLPSMNPFERRIVHTTLNRYSDIKTESEGDGNIKRIRVSYVRNNRYGINNSRGYQKRDIGFKK”, the protein production was “failed”.

With “MTEDRLSAEDKKFLEVERALKEAALNPLRHATEELFGDFLKMENITEICYNGNKVVWVLKNNGEWQPFDVRDRKAFSLSRLMHFARCCASFKKKTIDNYENPILSSNLANGERVQIVLSPVTVNDETISISIRIPSKTTYPHSFFEEQGFYNLLDNKEQAISAIKDGIAIGKNVIVCGGTGSGKTTYIKSIMEFIPKEERIISIEDTEEIVFKHHKNYTQLFFGGNITSADCLKSCLRMRPDRIILGELRSSEAYDFYNVLCSGHKGTLTTLHAGSSEEAFIRLANMSSSNSAARNIKFESLIEGFKDLIDMIVHINHHKQCDEFYIKHR” the protein production was “not failed”.

With “MSLSEIKHWVFDMDGTLTIAVHDFAAIREALSIPAEDDILTHLAALPADESAAKHAWLLEHERDLAQGSRPAPGAVELVRELAGRGYRLGILTRNARELAHVTLEAIGLADCFAEADVLGRDEAPPKPHPGGLLKLAEAWDVSPSRMVMVGDYRFDLDCGRAAGTRTVLVNLPDNPWPELTDWHARDCAQLRDLLSA” the protein production was “not failed”.

With “WSYEHLHLTNRIKLLYAPTFRDNELGMAKLHLDIAEMKQALGNEYQLILKLHPSISNDLEKLDDDFVIYVDKETPIETLLPVVDILITDYSSIPFEFALLQKPMIFFTYDLTEYNNARGLSDGFLETIPGPHVFTTTELIEVIQNNTFDLEKVRLFAEKWNKYSDGFSSERFVSFLKEQLEK” the protein production was “failed”.

In the case of “MIGAVIEAGVGITAALISLIEDKQNFLKKYEVSLIILPILVIFFHSMLIVPIYVFSIISGTYLYSKKFYYPFLLLFVSVFLIYIVYGINYPWKSTDIAISAGMIVVMVFDSREKEYVKQNEMNRGTDRKKEIRRDYVQILAGAVIILLIYYYGIDVSRILVTFGSLVLYVTGNFLAGRPDLLLGKLLNSLERSSTKLGIGSLWFASGILIAYSLHDSTAVVMMIVFSIAVGDSLATIIGTSVSSPKLPINRKKSAAGSIAFFAASAAFAIFVLGYAGLFYAAVATITEAVSGFPLDDNLTVPFILSILAYVSKML”, the protein production is reported as “failed”.

In the case of “MSDIPSDLHYTAEHEWIRRSGDDTVRVGITDYAQSALGDVVFVQLPVIGTAVTAGETFGEVESTKSVSDLYAPISGKVSEVNSDLDGTPQLVNSDPYGAGWLLDIQVDSSDVAALESALTTLLDAEAYRGTLTE”, the protein production is reported as “not failed”.

In the case of “MTLNITSKQMDITPAIREHLEERLAKLGKWQTQLISPHFVLNKVPNGFSVEASIGTPLGNLLASATSDDMYKAINEVEEKLERQLNKLQHKSESRRADERLKDSFEN”, the protein production is reported as “not failed”.

From a protein production outcome set (Wang et al. 2014)
